Positions count from the first letter of the chain named.
B1: hPGT121.66 AAS + W/huSP34.34.11 scFv AAS + SAV + R (bispecific antibody, human IgG1, lambda, L234A L235A)
chain: EVQLVESGGGLVQPGGSLRLSCAASGFTFNTYAMNWVRQAPGKGLEWVGRIRSKYNNYATYYAASVKGRFTISRDDSKNSLYLQMNSLKTEDTAMYYCVRHGNFGHSYVSWFAYWGQGTLVTVSSGGGGSGGGGSGGGGSGGGGSQAVVTQEPSLTVSPGGTVTLTCGSSTGAVTTGHYANWVQQKPGQAPRGLIGGTNKRAPGVPARFSGSLLGGKAALTLSGAQPEDEAEYYCALWYSNLWVFGGGTKLTVLEPKSSDKTHTCPPCPAPEAAGGPSVFLFPPKPKDTLMISRTPEVTCVVVDVSHEDPEVKFNWYVDGVEVHNAKTKPREEQYNSTYRVVSVLTVLHQDWLNGKEYKCKVSNKALPASIEKTISKAKGQPREPQVYTLPPSREEMTKNQVSLSCAVKGFYPSDIAVEWESNGQPENNYKTTPPVLDSDGSFFLVSKLTVDKSRWQQGNVFSCSVMHEALHNRYTQKSLSLSPGK
heavy: QMQLQESGPGLVKPSETLSLTCSVSGASISDSYWSWIRRSPGKGLEWIGYVHKSGDTNYNPSLKSRVHLSLDTSKNQVSLSLTGVTAADSGKYYCARTLHGRRIYGIVAFNEWFTYFYMDVWGTGTQVTVSSASTKGPSVFPLAPSSKSTSGGTAALGCLVKDYFPEPVTVSWNSGALTSGVHTFPAVLQSSGLYSLSSVVTVPSSSLGTQTYICNVNHKPSNTKVDKKVEPKSCDKTHTCPPCPAPEAAGGPSVFLFPPKPKDTLMISRTPEVTCVVVDVSHEDPEVKFNWYVDGVEVHNAKTKPREEQYNSTYRVVSVLTVLHQDWLNGKEYKCKVSNKALPASIEKTISKAKGQPREPQVYTLPPSREEMTKNQVSLWCLVKGFYPSDIAVEWESNGQPENNYKTTPPVLDSDGSFFLYSKLTVDKSRWQQGNVFSCSVMHEALHNHYTQKSLSLSPGK
light: not shown
B2: hPGT121.66 AAS + W/huSP34.3.13 scFv AAS + SAV + R (bispecific antibody, human IgG1, lambda, L234A L235A)
chain: B1 chain with A64D, K89R, M95V, N199S, K200N, L222I, L242R
heavy: B1 heavy
light: not shown
B3: hPGT121.66 AAS + W/huSP34.34.12 scFv AAS + SAV + R (bispecific antibody, human IgG1, lambda, L234A L235A)
chain: B1 chain with E152P, G204W, V205T, L214S, L222I, L242R
heavy: B1 heavy
light: not shown
B4: hPGT121.66 AAS + W/huSP34.34.10 scFv AAS + SAV + R (bispecific antibody, human IgG1, lambda, L234A L235A)
chain: B1 chain with E152P, L214S, L222I, L242R
heavy: B1 heavy
light: not shown
B5: huSP34.3.10 Fab-HF (Fab, V domains shown)
VH: EVQLVESGGGLVQPGGSLRLSCAASGFTFNTYAMNWVRQAPGKGLEWVGRIRSKYNNYATYYADSVKGRFTISRDDSKNSLYLQMNSLRTEDTAVYYCVRHGNFGHSYVSWFAYWGQGTLVTVSS
VL: QAVVTQPPSLTVSPGGTVTLTCGSSTGAVTTGHYANWVQQKPGQAPRGLIGGTNKRAPGVPARFSGSLSGGKAALTISGAQPEDEAEYYCALWYSNRWVFGGGTKLTVL
B6: huSP34.11.10 Fab-HF (Fab, V domains shown)
VH: B5 VH with N30S, D64A
VL: B5 VL
B7: huSP34.11.7 Fab-HF (Fab, V domains shown)
VH: B5 VH with N30S, D64A
VL: B5 VL with P7E, G23R, S69L, R97L
B8: huSP34.3.9 Fab-HF (Fab, V domains shown)
VH: B5 VH
VL: B5 VL with R97L
B9: huSP34.3.8 Fab-HF (Fab, V domains shown)
VH: B5 VH
VL: B5 VL with P7E, S69L
B10: huSP34.11.9 Fab-HF (Fab, V domains shown)
VH: B5 VH with N30S, D64A
VL: B5 VL with R97L
B11: huSP34.3.7 Fab-HF (Fab, V domains shown)
VH: B5 VH
VL: B5 VL with P7E, G23R, S69L, R97L
B12: huSP34.11.8 Fab-HF (Fab, V domains shown)
VH: B5 VH with N30S, D64A
VL: B5 VL with P7E, S69L
B13: huSP34.2.4 Fab-HF (Fab, V domains shown)
VH: B5 VH with N30S, D64A, R89K, V95M, H106N, Y114V
VL: B5 VL with P7E, G32S, N54S, G59W, V60T, S69L, I77L, N96A, R97L
B14: huSP34.5.6 Fab-HF (Fab, V domains shown)
VH: B5 VH with N30S, D76N, S80T, T90A, Y114V
VL: B5 VL with N54S, K55N, N96A
B15: huSP34.5.4 Fab-HF (Fab, V domains shown)
VH: B5 VH with N30S, D76N, S80T, T90A, Y114V
VL: B5 VL with P7E, G32S, N54S, G59W, V60T, S69L, I77L, N96A, R97L
B16: huSP34.4.5 Fab-HF (Fab, V domains shown)
VH: B5 VH with N30S, D64A, Y114V
VL: B5 VL with P7E, N54S, K55N, G59W, V60T, S69L, I77L, N96A
B17: huSP34.5.2 Fab-HF (Fab, V domains shown)
VH: B5 VH with N30S, D76N, S80T, T90A, Y114V
VL: B5 VL with P7E, G32S, H33N, N54S, K55N, G59W, V60T, S69L, I77L, R97L
B18: huSP34.4.4 Fab-HF (Fab, V domains shown)
VH: B5 VH with N30S, D64A, Y114V
VL: B5 VL with P7E, G32S, N54S, G59W, V60T, S69L, I77L, N96A, R97L
B19: huSP34.2.5 Fab-HF (Fab, V domains shown)
VH: B5 VH with N30S, D64A, R89K, V95M, H106N, Y114V
VL: B5 VL with P7E, N54S, K55N, G59W, V60T, S69L, I77L, N96A
B20: huSP34.5.1 Fab-HF (Fab, V domains shown)
VH: B5 VH with N30S, D76N, S80T, T90A, Y114V
VL: B5 VL with P7E, G23R, G32S, H33N, G59W, V60T, S69I, G71D, I77L, R97L
B21: huSP34.5.5 Fab-HF (Fab, V domains shown)
VH: B5 VH with N30S, D76N, S80T, T90A, Y114V
VL: B5 VL with P7E, N54S, K55N, G59W, V60T, S69L, I77L, N96A
B22: hPGT121.66 AAS + W/huSP34.26.8scFv AAS + SAV + R (bispecific antibody, human IgG1, lambda, L234A L235A)
chain: B1 chain with R19S, N30S, T60A, S80T, K89R, M95V, L222I, L242R
heavy: B1 heavy
light: not shown
B23: hPGT121.66 AAS + W/huSP34.33.8 scFv AAS + SAV + R (bispecific antibody, human IgG1, lambda, L234A L235A)
chain: B1 chain with N30S, G68S, S80T, Q84E, K89R, M95V, L222I, L242R
heavy: B1 heavy
light: not shown
B24: hPGT121.66 AAS + W/huSP34.14.8scFv AAS + SAV + R (bispecific antibody, human IgG1, lambda, L234A L235A)
chain: B1 chain with R19S, N30S, S80T, K89R, M95V, L222I, L242R
heavy: B1 heavy
light: not shown
B25: hPGT121.66 AAS + W/huSP34.28.8 scFv AAS + SAV + R (bispecific antibody, human IgG1, lambda, L234A L235A)
chain: B1 chain with R19S, N30S, G68S, S80T, K89R, M95V, L222I, L242R
heavy: B1 heavy
light: not shown
notes: also called 271; bispecific 271
B26: hPGT121.66 AAS + W/huSP34.19.8scFv AAS + SAV + R (bispecific antibody, human IgG1, lambda, L234A L235A)
chain: B1 chain with N30S, S80T, Q84E, K89R, M95V, L222I, L242R
heavy: B1 heavy
light: not shown
B27: hPGT121.66 AAS + W/huSP34.25.8scFv AAS + SAV + R (bispecific antibody, human IgG1, lambda, L234A L235A)
chain: B1 chain with N30S, T60A, G68S, S80T, K89R, M95V, L222I, L242R
heavy: B1 heavy
light: not shown
B28: hPGT121.66 AAS + W/huSP34.27.8 scFv AAS + SAV + R (bispecific antibody, human IgG1, lambda, L234A L235A)
chain: B1 chain with R19S, N30S, T60E, S80T, K89R, M95V, L222I, L242R
heavy: B1 heavy
light: not shown
notes: also called 270; bispecific 270

These binders were tested against T1, biotinylated CD3 epsilon:delta heterodimer protein (Amsbio AMS.CDD-H52WO) (Homo sapiens (Human), UniProt P07766 23-126; P04234 22-105) (assay: BLI (Octet), CD3 on SA sensor, bispecific analyte).
T1 construct: also called CD3 heterodimer

| Binder | Kd | koff | kon |
| --- | --- | --- | --- |
| B1 | 16 nM | 0.00172 s⁻¹ | 116000 M⁻¹ s⁻¹ |
| B2 | 16.8 nM | 0.00171 s⁻¹ | 106000 M⁻¹ s⁻¹ |
| B3 | 9.9 nM | 0.00431 s⁻¹ | 433000 M⁻¹ s⁻¹ |
| B4 | 8.4 nM | 0.00083 s⁻¹ | 120000 M⁻¹ s⁻¹ |

Each binder was assayed against T2, CD3 expressed on cell-surface of primary human T cells (human, UniProt P07766 23-207; P04234 22-171) (assay: flow cytometry competition vs murine SP34-AF488 on human T cells, average).
T2 construct: also called cell-surface CD3; human CD3

| Binder | IC50 |
| --- | --- |
| B5 | 0.15 µg/mL |
| B6 | 0.25 µg/mL |
| B7 | 0.32 µg/mL |
| B8 | 0.28 µg/mL |
| B9 | 0.15 µg/mL |
| B10 | 0.4 µg/mL |
| B11 | 0.23 µg/mL |
| B12 | 0.22 µg/mL |

The binders below were run against T2, CD3 expressed on cell-surface of … (assay: flow cytometry competition vs murine SP34-AF488 on human T cells, n = 2).

| Binder | IC50 |
| --- | --- |
| B5 | 0.09 µg/mL |
| B6 | 0.15 µg/mL |
| B7 | 0.18 µg/mL |
| B8 | 0.17 µg/mL |
| B9 | 0.1 µg/mL |
| B10 | 0.22 µg/mL |
| B11 | 0.15 µg/mL |
| B12 | 0.13 µg/mL |

The binders below were run against T2, CD3 expressed on cell-surface of … (assay: flow cytometry competition vs murine SP34-AF488 on human T cells, n = 1).

| Binder | IC50 |
| --- | --- |
| B13 | > 20 µg/mL |
| B14 | > 20 µg/mL |
| B15 | > 20 µg/mL |
| B16 | > 20 µg/mL |
| B17 | > 20 µg/mL |
| B18 | > 20 µg/mL |
| B19 | > 20 µg/mL |
| B20 | > 20 µg/mL |
| B21 | > 20 µg/mL |

Target: T2, CD3 expressed on cell-surface of …
Test: flow cytometry competition vs murine SP34-AF488 on human T cells, n = 2
Remark: another data set of the same source

| Binder | IC50 |
| --- | --- |
| B13 | > 20 µg/mL |
| B14 | > 20 µg/mL |
| B15 | > 20 µg/mL |
| B16 | > 20 µg/mL |
| B17 | > 20 µg/mL |
| B18 | > 20 µg/mL |
| B19 | > 20 µg/mL |
| B20 | > 20 µg/mL |
| B21 | > 20 µg/mL |

Target: T2, CD3 expressed on cell-surface of …
Test: flow cytometry competition vs murine SP34-AF488 on human T cells, n = 1
Remark: another data set of the same source

| Binder | IC50 |
| --- | --- |
| B5 | 0.2 µg/mL |
| B6 | 0.35 µg/mL |
| B7 | 0.45 µg/mL |
| B8 | 0.39 µg/mL |
| B9 | 0.2 µg/mL |
| B10 | 0.57 µg/mL |
| B11 | 0.3 µg/mL |
| B12 | 0.3 µg/mL |

Target: T1, biotinylated CD3 epsilon:delta …
Test: BLI (Octet), CD3 on SA sensor, bispecific analyte
Remark: another data set of the same source

| Binder | Kd | koff | kon |
| --- | --- | --- | --- |
| B22 | 9.3 nM | 0.000504 s⁻¹ | 55900 M⁻¹ s⁻¹ |
| B23 | 15.3 nM | 0.00118 s⁻¹ | 77400 M⁻¹ s⁻¹ |
| B24 | 24.3 nM | 0.000932 s⁻¹ | 39000 M⁻¹ s⁻¹ |
| B25 | 15.8 nM | 0.00134 s⁻¹ | 84600 M⁻¹ s⁻¹ |
| B26 | 14.7 nM | 0.00104 s⁻¹ | 72200 M⁻¹ s⁻¹ |
| B27 | 10.6 nM | 0.000928 s⁻¹ | 87600 M⁻¹ s⁻¹ |
| B28 | 13.2 nM | 0.001 s⁻¹ | 76300 M⁻¹ s⁻¹ |

These binders were tested against T3, biotinylated Human CD3E and CD3D (Acro Biosystems Cat CDD-H82W1) (human, UniProt P07766 23-126; P04234 22-105) (assay: SPR (Biacore 4000), CD3 captured on streptavidin chip;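 further: bispecific antibodies or Fabs injected at several concentrations over CD3 surfaces of varying density, sensorgrams fitted with a simple kinetic model to obtain association, dissociation and equilibrium constants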).
T3 construct: also called biotinylated CD3

| Binder | Kd | koff | kon |
| --- | --- | --- | --- |
| B1 | 3.9 nM | 0.0129 s⁻¹ | 3.3e+06 M⁻¹ s⁻¹ |
| B2 | 2.4 nM | 0.0084 s⁻¹ | 3.6e+06 M⁻¹ s⁻¹ |
| B3 | 32 nM | 0.0119 s⁻¹ | 370000 M⁻¹ s⁻¹ |
| B4 | 3.9 nM | 0.0102 s⁻¹ | 2.6e+06 M⁻¹ s⁻¹ |
